Data: patent US20240294622A1 (SUZHOU TRANSCENTA THERAPEUTICS, published 2024)

T1: HGREM1-His (ACRO) (human, UniProt O60565 25-184)
T1 construct: Lys25-Asp184 of NP_037504 with C-terminal polyhistidine tag (ACRO GR1-H52H3); they are put here; also called hGREM1 (ACRO); human gremlin (ACRO)
T1 sequence: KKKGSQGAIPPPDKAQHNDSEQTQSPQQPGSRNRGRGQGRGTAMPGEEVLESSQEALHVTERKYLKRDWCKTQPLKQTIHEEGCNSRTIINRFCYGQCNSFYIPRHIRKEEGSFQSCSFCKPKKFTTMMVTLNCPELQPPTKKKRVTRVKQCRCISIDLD

T2: DAN-his (Sinobiological) (human, UniProt P41271 17-181, limits assumed)
T2 construct: also called DAN (Sinobiological); human DAN-his
T2 sequence (looked up): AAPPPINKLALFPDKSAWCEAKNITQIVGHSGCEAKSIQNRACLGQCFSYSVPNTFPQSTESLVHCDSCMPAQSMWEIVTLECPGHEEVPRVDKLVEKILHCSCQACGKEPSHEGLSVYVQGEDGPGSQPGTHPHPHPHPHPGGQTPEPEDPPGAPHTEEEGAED

T3: Mouse Gremlin-His (R&D) (mouse, UniProt O70326 25-184)
T3 construct: Lys25-Asp184 with 10xHis, R&D 956-GR; also called mouse gremlin (R&D); mGREM1
T3 sequence: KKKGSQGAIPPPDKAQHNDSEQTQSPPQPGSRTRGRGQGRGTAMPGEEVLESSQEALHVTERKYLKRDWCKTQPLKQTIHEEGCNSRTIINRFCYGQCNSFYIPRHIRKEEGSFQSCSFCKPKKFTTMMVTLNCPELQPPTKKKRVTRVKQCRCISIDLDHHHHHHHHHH

B1: chimeric antibody 42B9 (antibody, human IgG1, V domains shown)
VH: QVQLQQSGAELARPGASVKLSCKASGYTFTSYGIGWVKQRTGQGLEWIGEIYPRSGNTYNNEKFKGKATLTADKSSRTVYMELRSLISEDSAVYFCAREGYSNNYYAMDYWGQGTSVTVFS
VL: DVLMTQTPLSLPVSLGDQASISCISSQSLVHSNGNTYLEWYLQKPGLSPKLLIYKVSNRFSGVPDRLSGSGSGTDFTLRISRVEAEDLGVYYCFQGSHVPFTFGSGTKLEIK
B2: 56C11 (antibody, V domains shown)
VH: EVQLQQSGPELVKPGASVKISCKASGYTFTDFYMNWVKQSHGKSLEWIGDINPNNGGTSYNQKFKGKATLTVDKSSSTAYMELRSLTSEDSAVYYCARDPIYYDYDEVAYWGQGTLVTVSA
VL: DVVMTQTPLSLPVSLGDQASISCRSSQSLVHSNGNTYLHWYLQKPGQSPKLLIYKVSNRFSGVPDRFSGSGSGTDFTLKISRVEAEDLGVYFCSQSTHVPLTFGAGTKLELK
notes: mouse hybridoma antibody; also called hybridoma 56C11
B3: Hu14E3_HbLa (antibody, IgG1, V domains shown)
VH: QIQLVQSGSELKKPGASVKVSCKASGYTFTTYGMAWMRQAPGQGLEWMGWINTLSGEPTYADDFKGRFAFSLDTSVSTAYLQISSLKAEDTAVYYCAREPMDYWGQGTMVTVSS
VL: DVVMTQSPLSLPVTLGQPASISCKSSQSLLDSDGKTYLSWLQQRPGQSPRRLIYLVSKLDSGVPDRFSGSGSGTDFTLKISRVEAEDVGVYYCWQGAHFPLTFGQGTKLEIK
notes: humanized
B4: Hu22F1_HcLa (antibody, V domains shown)
VH: QAQLVQSGAEVKKPGASVKVSCKASGYSFTDYYMNWVRQAPGQGLEWMGDINPKDGDSGYSHKFKGRVTLTVDKSTSTVYMELRSLRSEDTAVYYCASGFTTVVARGDYWGQGTTVTVSS
VL: DVVMTQSPLSLPVTLGQPASISCKSSQSLLDSDGKTYLNWLQQRPGQSPRRLIYLVSKLDSGVPDRFSGSGSGTDFTLKISRVEAEDVGVYYCWQGTHFPYTFGGGTKVEIK
B5: Hu22F1_HcLb (antibody, V domains shown)
VH: QAQLVQSGAEVKKPGASVKVSCKASGYSFTDYYMNWVRQAPGQGLEWMGDINPKDGDSGYSHKFKGRVTLTVDKSTSTVYMELRSLRSEDTAVYYCASGFTTVVARGDYWGQGTTVTVSS
VL: DVVMTQSPLSLPVTLGQPASISCKSSQSLLDSDGKTYLNWLQQRPGQSPRRLIYLVSKLDSGFPDRFSGSGSGTDFTLKISRVEAEDVGVYYCWQGTHFPYTFGGGTKVEIK
B6: Hu22F1_HaLb (antibody, V domains shown)
VH: QVQLVQSGAEVKKPGASVKVSCKASGYSFTDYYMNWVRQAPGQGLEWMGDINPKDGDSGYSHKFKGRVTMTRDTSTSTVYMELSSLRSEDTAVYYCASGFTTVVARGDYWGQGTTVTVSS
VL: DVVMTQSPLSLPVTLGQPASISCKSSQSLLDSDGKTYLNWLQQRPGQSPRRLIYLVSKLDSGFPDRFSGSGSGTDFTLKISRVEAEDVGVYYCWQGTHFPYTFGGGTKVEIK
B7: Hu22F1_HdLa (antibody, V domains shown)
VH: QAQLVQSGAEVKKPGASVKVSCKASGYSFTDYYMNWLRQAPGQGLEWIGDINPKDGDSGYSHKFKGRATLTVDKSTSTVYMELRSLRSEDTAVYYCASGFTTVVARGDYWGQGTTVTVSS
VL: DVVMTQSPLSLPVTLGQPASISCKSSQSLLDSDGKTYLNWLQQRPGQSPRRLIYLVSKLDSGVPDRFSGSGSGTDFTLKISRVEAEDVGVYYCWQGTHFPYTFGGGTKVEIK
B8: Hu22F1_HaLa (antibody, V domains shown)
VH: QVQLVQSGAEVKKPGASVKVSCKASGYSFTDYYMNWVRQAPGQGLEWMGDINPKDGDSGYSHKFKGRVTMTRDTSTSTVYMELSSLRSEDTAVYYCASGFTTVVARGDYWGQGTTVTVSS
VL: DVVMTQSPLSLPVTLGQPASISCKSSQSLLDSDGKTYLNWLQQRPGQSPRRLIYLVSKLDSGVPDRFSGSGSGTDFTLKISRVEAEDVGVYYCWQGTHFPYTFGGGTKVEIK
notes: humanized 22F1 variant
B9: Hu14E3_HbLb (antibody, IgG1, V domains shown)
VH: QIQLVQSGSELKKPGASVKVSCKASGYTFTTYGMAWMRQAPGQGLEWMGWINTLSGEPTYADDFKGRFAFSLDTSVSTAYLQISSLKAEDTAVYYCAREPMDYWGQGTMVTVSS
VL: DVVMTQSPLSLPVTLGQPASISCKSSQSLLDSDGKTYLSWLQQRPGQSPRRLISLVSKLDSGVPDRFSGSGSGTDFTLKISRVEAEDVGVYYCWQGAHFPLTFGQGTKLEIK
notes: humanized
B10: Hu22F1_HbLa (antibody, V domains shown)
VH: QVQLVQSGAEVKKPGASVKVSCKASGYSFTDYYMNWVRQAPGQGLEWMGDINPKDGDSGYSHKFKGRVTMTVDKSTSTVYMELSSLRSEDTAVYYCASGFTTVVARGDYWGQGTTVTVSS
VL: DVVMTQSPLSLPVTLGQPASISCKSSQSLLDSDGKTYLNWLQQRPGQSPRRLIYLVSKLDSGVPDRFSGSGSGTDFTLKISRVEAEDVGVYYCWQGTHFPYTFGGGTKVEIK
B11: Hu14E3_HcLa (antibody, IgG1, V domains shown)
VH: QIQLVQSGSELKKPGASVKVSCKASGSTFTTYGMAWMKQAPGQGLTWMGWINTLSGEPTYADDFKGRFAFSLDTSVSTAYLQISSLKAEDTAVYYCAREPMDYWGQGTMVTVSS
VL: DVVMTQSPLSLPVTLGQPASISCKSSQSLLDSDGKTYLSWLQQRPGQSPRRLIYLVSKLDSGVPDRFSGSGSGTDFTLKISRVEAEDVGVYYCWQGAHFPLTFGQGTKLEIK
notes: humanized
B12: Hu14E3_HaLb (antibody, IgG1, V domains shown)
VH: QVQLVQSGSELKKPGASVKVSCKASGYTFTTYGMAWMRQAPGQGLEWMGWINTLSGEPTYADDFKGRFVFSLDTSVSTAYLQISSLKAEDTAVYYCAREPMDYWGQGTMVTVSS
VL: DVVMTQSPLSLPVTLGQPASISCKSSQSLLDSDGKTYLSWLQQRPGQSPRRLISLVSKLDSGVPDRFSGSGSGTDFTLKISRVEAEDVGVYYCWQGAHFPLTFGQGTKLEIK
notes: humanized
B13: Hu22F1_HbLb (antibody, V domains shown)
VH: QVQLVQSGAEVKKPGASVKVSCKASGYSFTDYYMNWVRQAPGQGLEWMGDINPKDGDSGYSHKFKGRVTMTVDKSTSTVYMELSSLRSEDTAVYYCASGFTTVVARGDYWGQGTTVTVSS
VL: DVVMTQSPLSLPVTLGQPASISCKSSQSLLDSDGKTYLNWLQQRPGQSPRRLIYLVSKLDSGFPDRFSGSGSGTDFTLKISRVEAEDVGVYYCWQGTHFPYTFGGGTKVEIK
B14: Hu14E3_HcLb (antibody, IgG1, V domains shown)
VH: QIQLVQSGSELKKPGASVKVSCKASGSTFTTYGMAWMKQAPGQGLTWMGWINTLSGEPTYADDFKGRFAFSLDTSVSTAYLQISSLKAEDTAVYYCAREPMDYWGQGTMVTVSS
VL: DVVMTQSPLSLPVTLGQPASISCKSSQSLLDSDGKTYLSWLQQRPGQSPRRLISLVSKLDSGVPDRFSGSGSGTDFTLKISRVEAEDVGVYYCWQGAHFPLTFGQGTKLEIK
notes: humanized
B15: Hu22F1_HdLb (antibody, V domains shown)
VH: QAQLVQSGAEVKKPGASVKVSCKASGYSFTDYYMNWLRQAPGQGLEWIGDINPKDGDSGYSHKFKGRATLTVDKSTSTVYMELRSLRSEDTAVYYCASGFTTVVARGDYWGQGTTVTVSS
VL: DVVMTQSPLSLPVTLGQPASISCKSSQSLLDSDGKTYLNWLQQRPGQSPRRLIYLVSKLDSGFPDRFSGSGSGTDFTLKISRVEAEDVGVYYCWQGTHFPYTFGGGTKVEIK

These binders were tested against T1, HGREM1-His (ACRO) (assay: ELISA on coated human Gremlin-his; unit from the axis Ab(nM); panel called FIG. 19C in the text).
Experimental: (§1) Clear polystyrene plates (BEAVER) were coated with 100 μl/well of a 0.5 μg/ml human gremlin (ACRO) and DAN (Sinobiological) in high pH coating buffer overnight at 4° C. Then the plates were washed once on an automatic plate washer using PBS+0.1% Tween 20 (Sigma). 100 μl of block solution consisting of PBS+1% BSA+1% normal goat serum+0.5% Tween 20 (Sigma) was added to each well and incubated at room temperature for 2 hours. Then 100 ul of antibodies (hybridoma or chimeric antibody 36F5, chimeric antibody 67G11, chimeric antibody 42B9) in antibody dilution buffer containing PBS+1% BSA+1% normal goat serum+0.01% Tween 20 starting from 2 μg/ml (13.33 nM) and then 4 fold serial dilution were added to each well of the plate and incubated for 1 hours at room temperature. Afterward the plates were washed three times with 200 ul of PBS+0.1% Tween20 followed by adding 100 μl/well 1:10000 Goat anti mouse IgG-HRP or mouse anti-human IgG-HRP (abcam), and incubate for 1 hour at room temperature. They were then washed 3× with PBS+0.1% Tween20. Finally, 100 μl/well of TMB (InnoReagents) was added to each well and after 2 minutes add 50 ul of stop solution to each well. The plates were read on a Multiscan FC microplate reader (Thermo Scientific) at 450 nm.
An EC50 of 0.0209 nM was found for B1 in this work.

Each binder was assayed against T2, DAN-his (Sinobiological) (assay: ELISA on coated DAN-his; unit from the axis Ab(nM); panel called FIG. 19C in the text).
Experimental: as §1
An EC50 of 0.0203 nM was found for B1 in this work.

What follows are binders tested against T1, HGREM1-His (ACRO) (assay: ELISA, coated hGREM1 (ACRO)).
Experimental: (§2) Clear polystyrene plates (BEAVER) were coated with 100 μl/well of a […] hGREM1 (ACRO) and mouse gremlin (R&D) in high pH coating buffer overnight at 4° C. Then the plates were washed once on an automatic plate washer using PBS+0.1% Tween 20 (Sigma). 100 μl of block solution consisting of PBS+1% BSA+1% normal goat serum+0.5% Tween 20 (Sigma) was added to each well and incubated at room temperature for 2 hours. Then 100 μl of antibodies in antibody dilution buffer containing PBS+1% BSA+1% normal goat serum+0.01% Tween 20 starting from 2 μg/ml and then serial dilutions were added to each well of the plate and incubated for 1 hours at room temperature. Afterward the plates were washed three times with 200 μl of PBS+0.1% Tween20 followed by adding 100 μl/well 1:10000 Goat anti mouse IgG-HRP (abcam), and incubate for 1 hour at room temperature. They were then washed 3× with PBS+0.1% Tween20. Finally, 100 µl/well of TMB (Pierce) was added to each well and after several minutes add 50 μl of stop solution to each well. The plates were read on a Multiscan FC microplate reader (Thermo Scientific) at […].
An EC50 of 0.0134 µg/mL was found for B2 in this work.

These binders were tested against T1, HGREM1-His (ACRO) (assay: ELISA, binding to hGremlin-his).
An EC50 of 0.006 µg/mL was found for B3 in this work. An EC50 of 0.312 µg/mL was found for B4 in this work. An EC50 of 0.0435 µg/mL was found for B5 in this work. An EC50 of 0.117 µg/mL was found for B6 in this work. An EC50 of 0.0167 µg/mL was found for B7 in this work. An EC50 of 1.17 µg/mL was found for B8 in this work. An EC50 of 0.0062 µg/mL was found for B9 in this work. An EC50 of 1.04 µg/mL was found for B10 in this work. An EC50 of 0.0066 µg/mL was found for B11 in this work. An EC50 of 0.0056 µg/mL was found for B12 in this work. An EC50 of 0.094 µg/mL was found for B13 in this work. An EC50 of 0.0061 µg/mL was found for B14 in this work. An EC50 of 0.0103 µg/mL was found for B15 in this work.

These binders were tested against T3, Mouse Gremlin-His (R&D) (assay: ELISA, coated mouse gremlin (R&D)).
Experimental: as §2
An EC50 of 0.0172 µg/mL was found for B2 in this work.
